The source of these data is the supplement of paper PMC11246515.

The series can be described thus: total protein half-life in vivo (active degradation + dilution); higher = more stable protein.
The mark [1] stands for this setting: E. coli NCM3722 delta-clpP delta-lon delta-hslV, growth: N-lim chemostat, doubling time 6 h.
[2] abbreviates: E. coli NCM3722 delta-clpP, growth: N-lim chemostat, doubling time 6 h.
[3] abbreviates: E. coli NCM3722 delta-hslV, growth: N-lim chemostat, doubling time 6 h.
Setting [4] is: E. coli NCM3722 delta-lon, growth: N-lim chemostat, doubling time 6 h.
[5] abbreviates: E. coli NCM3722 delta-smpB, growth: N-lim chemostat, doubling time 6 h.
Setting [6] is: wild type E. coli NCM3722, growth: C-lim chemostat, doubling time 3 h.
Where [7] appears, read: wild type E. coli NCM3722, growth: C-lim chemostat, doubling time 6 h.
Setting [8] is: wild type E. coli NCM3722, growth: C-lim chemostat, doubling time 12 h.
Where [9] appears, read: wild type E. coli NCM3722, growth: N-lim chemostat, doubling time 6 h.
The mark [10] stands for this setting: wild type E. coli NCM3722, growth: N-lim chemostat, doubling time 12 h.
Setting [11] is: wild type E. coli NCM3722, growth: P-lim chemostat, doubling time 6 h.
[12] abbreviates: wild type E. coli NCM3722, growth: P-lim chemostat, doubling time 12 h.

± gives the standard deviation of the averaged measurements.

For “MELYLDTSDVVAVKALSRIFPLAGVTTNPSIIAAGKKPLDVVLPQLHEAMGGQGRLFAQVMATTAEGMVNDALKLRSIIADIVVKVPVTAEGLAAIKMLKAEGIPTLGTAVYGAAQGLLSALAGAEYVAPYVNRIDAQGGSGIQTVTDLHQLLKMHAPQAKVLAASFKTPRQALDCLLAGCESITLPLDVAQQMISYPAVDAAVAKFEQDWQGAFGRTSI”, the “total protein half-life in vivo” value runs as follows: under setting [1], 4.96 ± 0.38 h; under setting [2], 4.345 ± 0.017 h; under setting [3], 4.474 ± 0.0021 h; under setting [4], 4.44 ± 0.26 h; under setting [5], 4.3899 ± 0.004 h; under setting [6], 2.703 ± 0.021 h. Moreover, the “total protein half-life in vivo” value is 5.36 h under setting [7]; 8.19 ± 0.81 h under setting [8]; 3.81 ± 0.38 h under setting [9]; 7.04 ± 2.2 h under setting [10]; 5.72 ± 0.61 h under setting [11]; 10 ± 0.64 h under setting [12].
Take “MGKAVIAIHGGAGAISRAQMSLQQELRYIEALSAIVETGQKMLEAGESALDVVTEAVRLLEECPLFNAGIGAVFTRDETHELDACVMDGNTLKAGAVAGVSHLRNPVLAARLVMEQSPHVMMIGEGAENFAFARGMERVSPEIFSTSLRYEQLLAARKEGATVLDHSGAPLDEKQKMGTVGAVALDLDGNLAAATSTGGMTNKLPGRVGDSPLVGAGCYANNASVAVSCTGTGEVFIRALAAYDIAALMDYGGLSLAEACERVVMEKLPALGGSGGLIAIDHEGNVALPFNTEGMYRAWGYAGDTPTTGIYREKGDTVATQ”: the “total protein half-life in vivo” value runs as follows: under setting [1], 4.9 ± 0.24 h; under setting [2], 3.77 ± 0.08 h; under setting [3], 3.58 ± 0.043 h; under setting [4], 3.62 ± 0.16 h; under setting [5], 3.16 ± 0.25 h; under setting [6], 2.78 ± 0.19 h. For the same sequence, the “total protein half-life in vivo” value was found to be 4.99 ± 0.29 h under setting [7]; 11.2 ± 4.6 h under setting [8]; 3.47 ± 0.42 h under setting [9]; 4.78 ± 0.12 h under setting [10]; 4.75 ± 0.052 h under setting [11]; 8.26 ± 0.14 h under setting [12].
In the case of “MKVSVPGMPVTLLNMSKNDIYKMVSGDKMDVKMNIFQRLWETLRHLFWSDKQTEAYKLLFNFVNNQTGNINASEYFTGAINENEREKFINSLELFNKLKTCAKNPDELVAKGNMRWVAQTFGDIELSVTFFIEKNKICTQTLQLHKGQGNLGVDLRKAYLPGVDMRDCYLGKKTMKGSNDILYERPGWNANLGVLPRTVLPRTVLTRTVLTWTVLP”, the “total protein half-life in vivo” value under setting [1] was found to be 4.07 h.
For “MLDEKSSNTASVVVLCTAPDEATAQDLAAKVLAEKLAACATLIPGATSLYYWEGKLEQEYEVQMILKTTVSHQQALLECLKSHHPYQTPELLVLPVTHGDTDYLSWLNASLR”, the “total protein half-life in vivo” value turned out to be 4.37 h under setting [1]; 4.22 ± 1.7 h under setting [2]; 3.56 h under setting [3]; 3.26 ± 0.26 h under setting [5]; 7.25 h under setting [8]; 3.34 ± 0.39 h under setting [9]. For the same sequence, the “total protein half-life in vivo” value is, setting by setting: under setting [10], 4.91 ± 0.15 h; under setting [11], 5.13 ± 0.32 h.
For the sequence “MLYIDKATILKFDLEMLKKHRRAIQFIAVLLFIVGLLCISFPFVSGDILSTVVGALLICSGIALIVGLFSNRSHNFWPVLSGFLVAVAYLLIGYFFIRAPELGIFAIAAFIAGLFCVAGVIRLMSWYRQRSMKGSWLQLVIGVLDIVIAWIFLGATPMVSVTLVSTLVGIELIFSAASLFSFASLFVKQQ [P0AET5]”, the “total protein half-life in vivo” value is 5.35 ± 0.17 h under setting [1]; 5.39 ± 0.49 h under setting [2]; 5.44 ± 0.84 h under setting [3]; 5.08 ± 0.17 h under setting [4]; 6.6 ± 0.066 h under setting [5]; 2.2 h under setting [6]. The “total protein half-life in vivo” value under setting [8] is more than 16 h; the “total protein half-life in vivo” value under setting [9] was determined as 5.33 ± 0.29 h; the “total protein half-life in vivo” value under setting [10] amounted to 10.1 h; the “total protein half-life in vivo” value under setting [11] came out at 5.5 ± 0.65 h; the “total protein half-life in vivo” value under setting [12] was 10.1 ± 1.1 h.
Turning to “MNSCDFRVFLQEFGTTVHLSLPGSVSEKERLLLKLLMQGMSVTEISQYRNRSAKTISHQKKQLFEKLGIQSDITFWRDIFFQYNPEIISATGSNSHRYINDNHYHHIVTPEAISLALENHEFKPWIQPVFCAQTGVLTGCEVLVRWEHPQTGIIPPDQFIPLAESSGLIVIMTRQLMKQTADILMPVKHLLPDNFHIGINVSAGCFLAAGFEKECLNLVNKLGNDKIKLVLELTERNPIPVTPEARAIFDSLHQHNITFALDDFGTGYATYRYLQAFPVDFIKIDKSFVQMASVDEISGHIVDNIVELARKPGLSIVAEGVETQEQADLMIGKGVHFLQGYLYSPPVPGNKFISEWVMKAGG”, the “total protein half-life in vivo” value by setting is: under setting [1], 6.19 ± 0.079 h; under setting [2], 5.64 ± 0.26 h; under setting [5], 5.76 ± 0.27 h; under setting [6], 3.346 ± 0.027 h; under setting [7], 5.06 ± 0.71 h; under setting [8], 10.4 ± 2.6 h. Besides, the “total protein half-life in vivo” value is, setting by setting: under setting [9], 5.94 ± 0.41 h; under setting [10], 10.9 ± 0.36 h; under setting [11], 5.76 ± 0.1 h; under setting [12], 12.3 ± 1.1 h.
Consider “MMYRIRNWLVATLLLLCTPVGAATLSDIQVSNGNQQARITLSFIGDPDYAFSHQSKRTVALDIKQTGVIQGLPLLFSGNNLVKAIRSGTPKDAQTLRLVVDLTENGKTEAVKRQNGSNYTVVFTINADVPPPPPPPPVVAKRVETPAVVAPRVSEPARNPFKTESNRTTGVISSNTVTRPAARATANTGDKIIIAIDAGHGGQDPGAIGPGGTREKNVTIAIARKLRTLLNDDPMFKGVLTRDGDYFISVMGRSDVARKQNANFLVSIHADAAPNRSATGASVWVLSNRRANSEMASWLEQHEKQSELLGGAGDVLANSQSDPYLSQAVLDLQFGHSQRVGYDVATSMISQLQRIGEIHKRRPEHASLGVLRSPDIPSVLVETGFISNNSEERLLASDDYQQQLAEAIYKGLRNYFLAHPMQSAPQGATAQTASTVTTPDRTLPN”, for which the “total protein half-life in vivo” value turned out to be 2.15 ± 0.036 h under setting [1]; 2.05 ± 0.41 h under setting [2]; 2.71 ± 1.6 h under setting [3]; 1.97 ± 0.085 h under setting [4]; 1.74 ± 0.34 h under setting [5]; 1.64 ± 0.18 h under setting [6]. Besides, the “total protein half-life in vivo” value was 2.63 ± 0.23 h under setting [7]; 4.87 ± 1.5 h under setting [8]; 2.54 ± 0.74 h under setting [9]; 2.65 ± 0.31 h under setting [10]; 3.4 ± 3.2 h under setting [11]; 2.92 ± 1.1 h under setting [12].
In the case of “MTKHYDYIAIGGGSGGIASINRAAMYGQKCALIEAKELGGTCVNVGCVPKKVMWHAAQIREAIHMYGPDYGFDTTINKFNWETLIASRTAYIDRIHTSYENVLGKNNVDVIKGFARFVDAKTLEVNGETITADHILIATGGRPSHPDIPGVEYGIDSDGFFALPALPERVAVVGAGYIAVELAGVINGLGAKTHLFVRKHAPLRSFDPMISETLVEVMNAEGPQLHTNAIPKAVVKNTDGSLTLELEDGRSETVDCLIWAIGREPANDNINLEAAGVKTNEKGYIVVDKYQNTNIEGIYAVGDNTGAVELTPVAVAAGRRLSERLFNNKPDEHLDYSNIPTVVFSHPPIGTVGLTEPQAREQYGDDQVKVYKSSFTAMYTAVTTHRQPCRMKLVCVGSEEKIVGIHGIGFGMDEMLQGFAVALKMGATKKDFDNTVAIHPTAAEEFVTMR”, the “total protein half-life in vivo” value was determined as 5.12 ± 0.23 h under setting [1]; 5.46 ± 0.48 h under setting [2]; 4.85 ± 0.18 h under setting [3]; 5.81 ± 0.49 h under setting [4]; 4.64 ± 0.066 h under setting [5]; 3.02 ± 0.17 h under setting [6]. Besides, the “total protein half-life in vivo” value was 6.27 ± 0.5 h under setting [7]; 11.5 ± 0.61 h under setting [8]; 5.08 ± 0.14 h under setting [9]; 8.33 ± 0.71 h under setting [10]; 6.07 ± 0.31 h under setting [11]; 13 ± 0.92 h under setting [12].
